This series concerns Escherichia coli TOP10. Nature of the series: shrunken log2 fold change of peptide-encoding DNA abundance (4.5 h post-induction vs induction); higher = less antimicrobial activity (less host growth inhibition). Particulars: time post-induction: 4.5 h; library: site-saturation at positions 5, 18, 19, 20.
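Also: peptides expressed intracellularly from a pBAD plasmid library in pooled LB shake-flask culture, induced with 0.3% L-arabinose, DNA abundance read by NGS, three biological replicates, DESeq2 with apeglm shrinkage.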

Take RRIRYRPPRLPRPRPRPICKPRP: the “shrunken log2 fold change” value is -0.193. To RRIRVRPPRLPRPRPRPLCYPRP belongs -0.4. To RRIRARPPRLPRPRPRPKYNPRP belongs -0.411. To RRIRYRPPRLPRPRPRPMSIPRP belongs -0.563; to RRIRCRPPRLPRPRPRPFESPRP, 0.0262.

RRIRERPPRLPRPRPRPQNAPRP: the “shrunken log2 fold change” value turned out to be 0.0619. RRIRMRPPRLPRPRPRPNLGPRP: the “shrunken log2 fold change” value is -0.0136.

As for RRIRVRPPRLPRPRPRPVVLPRP, the “shrunken log2 fold change” value was 0.0921. To RRIRDRPPRLPRPRPRPTISPRP belongs -0.0421; to RRIRLRPPRLPRPRPRPGEMPRP, 0.0594. To RRIRRRPPRLPRPRPRPRNGPRP belongs 0.144.

On to RRIRGRPPRLPRPRPRPRRQPRP, for which the “shrunken log2 fold change” value amounted to 0.85.

Consider RRIRARPPRLPRPRPRPQEYPRP, for which the “shrunken log2 fold change” value was 0.0643. To RRIRHRPPRLPRPRPRPAQDPRP belongs 0.0349; to RRIRTRPPRLPRPRPRPEGCPRP, 0.214; to RRIRCRPPRLPRPRPRPGEMPRP, 0.438. In the case of RRIRQRPPRLPRPRPRPQFSPRP it was -0.525; in that of RRIRPRPPRLPRPRPRPPLWPRP, 1.75; in that of RRIRPRPPRLPRPRPRPMYCPRP, -0.0366.

Turning to RRIRARPPRLPRPRPRPDYAPRP, the “shrunken log2 fold change” value was found to be 2.44.
